Reference: US20090075925A1 (published 2009)

T1: rat APOBEC-1 (endogenous, rat liver nuclear extract and McArdle cells) (rat)
T1 sequence (P38483 1-229, looked up): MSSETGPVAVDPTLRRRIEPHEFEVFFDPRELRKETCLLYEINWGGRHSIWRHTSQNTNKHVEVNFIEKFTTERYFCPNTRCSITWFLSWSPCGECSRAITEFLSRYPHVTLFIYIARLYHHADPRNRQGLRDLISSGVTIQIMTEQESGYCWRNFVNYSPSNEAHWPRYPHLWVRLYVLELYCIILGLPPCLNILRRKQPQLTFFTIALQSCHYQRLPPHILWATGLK

B1: ACF of nuclear extract treated with calf intestinal alkaline phosphatase (CIAP) (other, rat, UniProt Q923K9-2 1-586, looked up)
chain: MESNHKSGDGLSGTQKEAALRALVQRTGYSLVQENGQRKYGGPPPGWDTTPPERGCEIFIGKLPRDLFEDELIPLCEKIGKIYEMRMMMDFNGNNRGYAFVTFSNKQEAKNAIKQLNNYEIRNGRLLGVCASVDNCRLFVGGIPKTKKREEILSEMKKVTEGVVDVIVYPSAADKTKNRGFAFVEYESHRAAAMARRRLLPGRIQLWGHPIAVDWAEPEVEVDEDTMSSVKILYVRNLMLSTSEEMIEKEFNSIKPGAVERVKKIRDYAFVHFSNREDAVEAMKALNGKVLDGSPIEVTLAKPVDKDSYVRYTRGTGGRNTMLQEYTYPLSHVYDPTTTYLGAPVFYTPQAYAAIPSLHFPATKGHLSNRALIRTPSVRGAAGVRGLGGRGYLAYTGLGRGYQVKGDKRQDKLYDLLPGMELTPMNTISLKPQGVKLAPQILEEICQKNNWGQPVYQLHSAIGQDQRQLFLYKVTIPALASQNPAIHPFTPPKLSAYVDEAKRYAAEHTLQTLGIPTEGGDAGTTAPTATSATVFPGYAVPSATAPVSTAQLKQAVTLGQDLAAYTTYEVYPTFAVTTRGDGYGTF
modifications: phosphates removed by CIAP treatment of the extract
B2: HA epitope-tagged APOBEC-1 stably expressed in McArdle RH7777 cells (enzyme, UniProt P38483 1-229, looked up, not shown: small tags and cut ends)
chain: T1 sequence (P38483 1-229, looked up)
notes: also called HA-tagged APOBEC-1

Legend:
[1] = biological target: T1, rat APOBEC-1 (endogenous, rat liver …); experiment: cell-based or functional assay
[2] = biological target: B1; experiment: co-immunoprecipitation with ACF CT antibody from CIAP-treated McArdle nuclear extract, anti-HA western blot, densitometry (FIG. 2A)
Protocol: Control extracts were treated similarly but lacked phosphatase. […] (n=4, standard deviation+/−0.2). […] Data shown is representative of 3 independent experiments. *Statistical significance was determined to be P≦0.01 by unpaired t-test relative to control. […] Quantitation of relative amounts of ACF bound was performed using PhoshorImager scanning densitometry.

Row | Binder | fold decrease in in vitro ApoB mRNA editing activity of CIAP-treated nuclear extract (poisoned-primer extension) [1] | fold reduction of APOBEC-1 recovered with immunoprecipitated ACF (CIAP-treated against control nuclear extract) [2]
1 | B1 | 2.5 fold | –
2 | B2 | – | 3 fold
